Experimental findings from patent US20220323495A1 (NATIONAL RESEARCH COUNCIL OF CANADA, published 2022) are described below.

Assay [1] concerns the target T1, wild-type human EGFR expressed on cells (U87MG overexpressing wild-type human EGFR) (human, UniProt P00533 25-645).
T1 construct: Full length wt EGFR on cells; also called U87MG-EGFR WT; U87 WT
Kind of assay: flow cytometry, hybridoma supernatant on U87MG-EGFR WT cells. On the procedure: Prior to analysis, cells were plated such that they were not more than 80% confluent on the day of analysis. Unless otherwise stated, all media are kept are 4° C. and all incubations are performed on wet ice.
For orientation: In flow cytometry, cells or beads pass a laser one at a time.

Assay [2] addresses T2, recombinant human wild-type EGFR protein, native (human, UniProt P00533 25-645).
T2 construct: Recombinant protein used as ELISA coat; also called EGFRwt; wt EGFR
As to the kind of experiment: ELISA on coated native recombinant antigen; Exp 1, mAb supernatant. On the procedure:
(§1) Pre- and post-immune sera titers of animals were assessed by ELISA on recombinant EGFRvIII protein. Unless otherwise stated, all incubations were performed at room temperature. Briefly, half-area 96-well plates (Costar #3690) were coated with 25 μl per well of immunogen at 5 μg/ml in PBS and incubated overnight at 4° C. Microplates were washed three times in PBS and blocked for 30 min with PBS containing 1% bovine serum albumin (BSA, Sigma Cat#A7030). Blocking buffer was removed and 25 μl of serial dilutions of sera samples were added. After a 2-h incubation, microplates were washed 4 times with PBS-TWEEN™ 20 0.05% and 25 μl of a 1/5,000 dilution of alkaline phosphatase conjugated F(ab′)′₂ goat anti-mouse IgG (H+L, #115-056-062, Jackson Immunoresearch, Cedarlane, Burlington, ON) in blocking buffer was added. After a 1-h incubation, microplates were washed 4 times and 25 μl of p-nitrophenyl phosphate (pNPP) substrate (Sigma-Aldrich Canada Co., Oakville, ON) at 1 mg/ml in carbonate buffer at pH 9.6 was added and further incubated for 30 min. Absorbance was read at 405 nm using a SpectraMax 340 PC plate reader (Molecular Devices, Sunnyvale, Calif.).
(§2) To evaluate if monoclonal antibodies bind to a conformational epitope, an ELISA analysis on native and denatured recombinant human wild-type EGFR and EGFRvIII proteins were performed. […] Antigens at 1-2 mg/ml were denatured by incubation at 95° C. for 5 min in PBS containing DTT at 40 mM final concentration. They were then incubated on ice for 5 min and diluted at their final coating concentration for ELISA purpose.
(§3) mAbs were purified using HiTrap ProteinG HP 1 mL columns GE Healthcare cat no. 17-0404-01 and desalted using Zeba-spin desalting columns 5 mL (Pierce) pre-equilibrated in PBS and filter sterilized through […] membrane (Millipore). The final concentration of the antibody solutions was determined using a Nano-drop 2000 (ThermoScientific), using IgG as sample type. ELISA was performed as described above (serum titer determination) using 25 μl of mAb supernatant (Exp 1) or purified mAb at 1 μg/ml (Exp 2).

Assay [3] concerns the target T3, recombinant human EGFRvIII protein, native (human, UniProt P00533 298-623).
T3 construct: Recombinant extracellular domain used as immunogen and ELISA coat; also called EGFRvIII Native
The description is as above. On the procedure: as §1, §2, §3

Assay [4] deals with T4, recombinant human EGFRvIII protein, denatured (human, UniProt P00533 298-623).
T4 construct: Same protein as m9 after denaturation (95 °C for 5 min in PBS with 40 mM DTT); also called EGFRvIII Denatured
Kind of assay: ELISA on coated denatured recombinant antigen; Exp 1, mAb supernatant. On the procedure: as §1, §2, §3
(In general: ELISA stands for enzyme-linked immunosorbent assay.)

The target in assay [5] is T2, recombinant human wild-type EGFR …. Kind of assay: ELISA on coated native recombinant antigen; Exp 2, purified mAb 1 µg/ml. On the procedure: as §1, §2, §3
For assay [6], the target named is T3, recombinant human EGFRvIII protein, …. The assay is described as above. The protocol:
as §1, §2, §3

For assay [7], the target named is T5, human EGFRvIII amino acid residues 1 to 18, yeast-displayed (human, not fully specified).
T5 construct: also called aa 1-18
T5 peptide: LEEKKGNYVVTDHGSCVR
As to the kind of experiment: yeast display; smallest EGFRvIII fragment the antibody was able to bind. The text has this: Assessment of the binding of anti-EGFRvIII monoclonal antibodies to the fusion proteins expressed on yeast cell surface was done by flow cytometry analysis. Yeast cells were labeled with both the anti-EGFRvIII monoclonal antibody and chicken anti-Myc antibody the latter being used to monitor the level of expression of the fusion protein. Following a wash step, binding of the primary antibodies is probed by a two-color indirect fluorescence labeling using a specific mouse and chicken secondary antibodies for each of the primary antibody respectively.

Assay [8] concerns the target T4, recombinant human EGFRvIII protein, …. As to the kind of experiment: ELISA on coated denatured recombinant antigen; Exp 2, purified mAb 1 µg/ml. On the procedure:
as §1, §2, §3

The target of assay [9] is T6, recombinant human wild-type EGFR protein, denatured (human, UniProt P00533 25-645).
T6 construct: Same protein as m11 after denaturation (95 °C for 5 min in PBS with 40 mM DTT); also called EGFRwt Denatured
The description is as above. On the procedure:
as §1, §2, §3

No end group written: not given here.

B1: F271-1D2 anti-EGFRvIII monoclonal antibody (antibody, V domains shown)
VH: DVQLQESGPDLVKPSQSLSLTCTVTGYSITSGYSWHWIRQFPGNKLEWMGYIHYSGSTNYNPSLKSRISITRDTSKNQFFLQLSSVTTEDTATYYCTRSPYFDVWGTGTTVTVSS
VL: DVVMTQTPLSLPVSLGDQASISCRSSQSLVHSDGNTYLHWYLQKPGQSPKLLIYKVSNRFSGVPDRFSGSGSGTDFTLKISRVEAEDLGVYFCSQSTHVPWTFGGGTKLEIK
notes: Mouse hybridoma IgG, tested as supernatant or Protein G purified mAb
B1: the binding result in assay [1] is given as “no binding”; in assay [7], “binds”. Also, the “ELISA absorbance (405 nm)” value in assay [2] was determined as 0.002 A405; in assay [3], 1.49 A405; in assay [4], 2.55 A405; in assay [5], 0.004 A405; in [6], 0.935 A405; in assay [8] it was 1.05 A405. The “ELISA absorbance (405 nm)” value in [9] was determined as 0 A405.
